Experimental data: patent publication US20130243746

Target: recombinant human acid alpha glucosidase (rhGAA), 110 kDa precursor

B1: recombinant Aspergillus oryzae alkaline protease expressed in Yarrowia lipolytica (strains OXYY2184 and OXYY2122), mature form with linker and His tag (protein)
chain: GLTTQKSAPWGLGSISHKGQQSTDYIYDTSAGEGTYAYVVDSGVNVDHEEFEGRASKAYNAAGGQHVDSIGHGTHVSGTIAGKTYGIAKKASILSVKVFQGESSSTSVILDGFNWAANDIVSKKRTSKAAINMSLGGGYSKAFNDAVENAFEQGVLSVVAAGNENSDAGQTSPASAPDAITVAAIQKSNNRASFSNFGKVVDVFAPGQDILSAWIGSSSATNTISGTSMATPHIVGLSLYLAALENLDGPAAVTKRIKELATKDVVKDVKGSPNLLAYNGNASGGGHHHHHHHHHH
- processing of the 110 kDa rhGAA precursor in culture supernatant of the co-expressing strain OXYY2122 (SDS-PAGE and immunoblot): This processing was complete; no 110 kDa form was detected
- proteolysis of rhGAA to the 95 kDa form (weight:weight ratio 200:1 total protein:protease, 16 h at 30 C; SDS-PAGE): resulted in a full proteolysis to the 95 kDa product
